# Reference: US20230012273A1 (Boehringer Ingelheim, published 2023)
# Substitutions are numbered along the chain they refer to.
# B1: Antibody E1 (antibody, human IgG1, kappa, L234A L235A, V domains shown)
# VH: QVQLQESGPGLVRPSETLSLTCTVSGGSIRNYYWSWIRQPPGKGLEWIGFIYYNGRTFYNPSLKSRVTISLDMSINQFSLKMTSVTAADTAVYYCARVRAYSGIGLDGTDVWGQGTTVTVSS
# VL: DIVMTQSPLSLPVTPGEPASISCKSSQSLLYSNGYAYLDWYLQRPGQSPQLLIYQGSNRASGVPDRFSGSGSGTDFTLKISRVEAEDVGVFYCMQALQTPLTFGGGTKVEIKR
# B2: Antibody E6 (antibody, human IgG1, kappa, L234A L235A, V domains shown)
# VH: B1 VH with M73K, I75K
# VL: B1 VL with Q55L, F91Y
# B3: Antibody E3 (antibody, human IgG1, kappa, L234A L235A, V domains shown)
# VH: B1 VH with I75K
# VL: B1 VL
# B4: Antibody E5 (antibody, human IgG1, kappa, L234A L235A, V domains shown)
# VH: B1 VH with M73K, I75K
# VL: B1 VL
# B5: Antibody E7 (antibody, human IgG1, kappa, L234A L235A, V domains shown)
# VH: B1 VH with M73T, I75K
# VL: B1 VL
# B6: Antibody E2 (antibody, human IgG1, kappa, L234A L235A, V domains shown)
# VH: B1 VH
# VL: B1 VL with Q55L, F91Y
# B7: Antibody E8 (antibody, human IgG1, kappa, L234A L235A, V domains shown)
# VH: B1 VH with I48M, Y53D, I75M
# VL: B1 VL
# B8: Antibody E4 (antibody, human IgG1, kappa, L234A L235A, V domains shown)
# VH: B1 VH with I75K
# VL: B1 VL with Q55L, F91Y
# B9: Antibody E1 (antibody, human IgG1, kappa, L234A L235A, V domains shown)
# VH: B1 VH
# VL: B1 VL
# B10: Antibody E3 (antibody, human IgG1, kappa, L234A L235A, V domains shown)
# VH: B1 VH with I75K
# VL: B1 VL
# B11: Antibody E10 (antibody, human IgG1, kappa, L234A L235A, V domains shown)
# VH: B1 VH with M73T, I75K
# VL: B1 VL with Q55L, F91Y
# B12: Antibody E11 (antibody, human IgG1, kappa, L234A L235A, V domains shown)
# VH: B1 VH with I48M, Y53D, I75M
# VL: B1 VL with Q55L, F91Y
# B13: Antibody E16 (antibody, human IgG1, kappa, L234A L235A, V domains shown)
# VH: B1 VH with M73T, I75K
# VL: B1 VL with G34A, A36N, Q55L, F91Y
# B14: Antibody E (antibody, human IgG1, kappa, L234A L235A)
# heavy: not shown
# light: DIVMTQSPLSLPVTPGEPASISCKSSQSLLYSNGYNYLDWYLQRPGQSPQLLIYLGSNRASGVPDRFSGSGSGTDFTLKISRVEAEDVGVFYCMQALQTPLTFGGGTKVEIKRTVAAPSVFIFPPSDEQLKSGTASVVCLLNNFYPREAKVQWKVDNALQSGNSQESVTEQDSKDSTYSLSSTLTLSKADYEKHKVYACEVTHQGLSSPVTKSFNRGEC
# Target: T1, cynomolgus SIRPα (EGM_02252) extracellular domain + His-tag (cynomolgus monkey)
# T1 construct: SPR analyte; also called CySIRPα EGM_02252; cynoSIRPα; not shown: His-tag
# T1 chain: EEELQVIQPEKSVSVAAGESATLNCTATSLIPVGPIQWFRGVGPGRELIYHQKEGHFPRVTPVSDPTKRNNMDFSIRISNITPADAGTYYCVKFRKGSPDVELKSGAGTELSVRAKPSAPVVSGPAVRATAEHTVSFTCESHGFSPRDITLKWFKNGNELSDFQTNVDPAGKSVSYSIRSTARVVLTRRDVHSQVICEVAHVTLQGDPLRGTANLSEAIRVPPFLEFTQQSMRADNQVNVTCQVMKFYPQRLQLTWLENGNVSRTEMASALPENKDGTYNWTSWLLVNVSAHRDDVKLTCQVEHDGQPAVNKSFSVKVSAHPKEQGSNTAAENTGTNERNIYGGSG
# Experiment: SPR
# Description: (§1) The binding affinity of anti-SIRPα antibodies to the various SIRPα analytes is determined by surface plasmon resonance (SPR) using a ProteOn XPR36 (Bio-Rad). The running buffer for this experiment and all dilutions (except where stated) are done in 1×HBS-EP+. […] The sensorchip is deactivated with 1M ethanolamine HCl for 420 sec at a flowrate of 10 μl/min.
# (§2) The analyte is injected over the captured antibody for 300 sec at a flowrate of 30 μl/min. The dissociation is done for 600 sec. Two-fold serial dilutions of each SIRP protein (Extracellular Domain+His-Tag) are injected as analyte with the highest concentrations indicated in table 36 below.
row,Binder,binding result
1,B1,no binding (tested: 1000 nM)
2,B2,no binding (tested: 1000 nM)
3,B3,no binding (tested: 1000 nM)
4,B4,no binding (tested: 1000 nM)
5,B5,no binding (tested: 1000 nM)
6,B6,no binding (tested: 1000 nM)
7,B7,no binding (tested: 1000 nM)

# Target: T2, cynomolgus SIRPβ1 (XP_005568598) extracellular domain + His-tag (cynomolgus monkey)
# T2 construct: SPR analyte; also called Cyno SIRPβ1 XP_005568598; cynoSIRPβ1; not shown: His-tag
# T2 chain: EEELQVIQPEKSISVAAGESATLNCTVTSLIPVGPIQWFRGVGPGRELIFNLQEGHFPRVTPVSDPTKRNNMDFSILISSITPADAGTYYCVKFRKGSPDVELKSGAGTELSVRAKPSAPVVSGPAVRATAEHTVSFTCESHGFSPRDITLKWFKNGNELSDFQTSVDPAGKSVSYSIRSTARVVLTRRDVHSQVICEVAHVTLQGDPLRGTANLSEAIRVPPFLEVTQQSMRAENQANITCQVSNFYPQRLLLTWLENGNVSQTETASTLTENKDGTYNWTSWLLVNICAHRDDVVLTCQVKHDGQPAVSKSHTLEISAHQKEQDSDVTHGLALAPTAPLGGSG
# Experiment: SPR
# Description: as §1, §2
row,Binder,binding result
1,B1,no binding (tested: 1000 nM)
2,B2,no binding (tested: 1000 nM)
3,B3,no binding (tested: 1000 nM)
4,B4,no binding (tested: 1000 nM)
5,B5,no binding (tested: 1000 nM)
6,B6,no binding (tested: 1000 nM)
7,B7,no binding (tested: 1000 nM)

# Target: T3, cynomolgus SIRPγ (XP_005568591) extracellular domain + His-tag (cynomolgus monkey, UniProt Q9P1W8 29-359 (human entry))
# T3 construct: SPR analyte; also called Cyno SIRPγ XP_005568591; cynoSIRPγ; not shown: His-tag
# T3 chain: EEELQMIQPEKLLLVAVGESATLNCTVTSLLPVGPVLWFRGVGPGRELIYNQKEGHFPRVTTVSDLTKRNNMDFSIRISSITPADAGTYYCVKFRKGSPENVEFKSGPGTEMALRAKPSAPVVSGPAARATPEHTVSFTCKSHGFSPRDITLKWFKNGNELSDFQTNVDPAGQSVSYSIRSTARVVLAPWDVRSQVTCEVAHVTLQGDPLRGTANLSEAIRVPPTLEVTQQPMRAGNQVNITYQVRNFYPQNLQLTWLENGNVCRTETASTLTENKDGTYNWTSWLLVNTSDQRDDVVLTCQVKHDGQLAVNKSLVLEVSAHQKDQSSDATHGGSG
# Experiment: SPR
# Description: as §1, §2
row,Binder,binding result
1,B1,no binding (tested: 1000 nM)
2,B2,no binding (tested: 1000 nM)
3,B3,no binding (tested: 1000 nM)
4,B4,no binding (tested: 1000 nM)
5,B5,no binding (tested: 1000 nM)
6,B6,no binding (tested: 1000 nM)
7,B7,no binding (tested: 1000 nM)

# Target: T4, human SIRPαV1 extracellular domain + His-tag (NP_542970.1) (human, UniProt P78324 31-373)
# T4 construct: also called hSIRPαV1; HuSIRPαV1
# T4 sequence (P78324 other isoform, or with tags, fused parts or gaps): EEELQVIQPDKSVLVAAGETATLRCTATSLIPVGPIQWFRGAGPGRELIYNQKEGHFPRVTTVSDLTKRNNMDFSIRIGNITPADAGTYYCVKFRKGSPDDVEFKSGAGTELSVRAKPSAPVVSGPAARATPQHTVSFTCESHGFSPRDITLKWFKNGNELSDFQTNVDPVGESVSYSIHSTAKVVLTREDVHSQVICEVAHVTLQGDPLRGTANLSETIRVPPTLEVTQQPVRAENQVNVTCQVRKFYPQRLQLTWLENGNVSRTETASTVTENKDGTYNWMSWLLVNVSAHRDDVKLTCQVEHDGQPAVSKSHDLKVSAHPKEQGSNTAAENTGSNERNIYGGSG
# Experiment: SPR, Ab captured, ECD-His analyte
# Description: as §1, §2
row,Binder,Kd [nM]
1,B8,0.988
2,B9,0.723
3,B10,0.964
4,B11,1.23
5,B12,1.41
6,B13,2.15

# Target: T5, human SIRPαV2 extracellular domain + His-tag (CAA71403.1) (human, UniProt P78324 31-373)
# T5 construct: also called hSIRPαV2; HuSIRPαV2
# T5 sequence (P78324 other isoform, or with tags, fused parts or gaps): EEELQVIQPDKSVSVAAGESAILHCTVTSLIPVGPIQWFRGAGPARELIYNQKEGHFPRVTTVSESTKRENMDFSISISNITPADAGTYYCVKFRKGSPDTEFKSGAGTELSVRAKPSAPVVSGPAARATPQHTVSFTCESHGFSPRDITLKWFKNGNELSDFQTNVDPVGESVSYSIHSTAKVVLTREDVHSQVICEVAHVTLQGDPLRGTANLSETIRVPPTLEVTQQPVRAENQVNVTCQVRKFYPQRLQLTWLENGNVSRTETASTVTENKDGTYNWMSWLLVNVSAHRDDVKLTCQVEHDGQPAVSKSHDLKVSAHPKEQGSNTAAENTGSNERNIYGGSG
# Experiment: SPR, Ab captured, ECD-His analyte
# Description: as §1, §2
row,Binder,Kd [nM]
1,B8,0.824
2,B9,0.63
3,B10,0.775
4,B11,1.2
5,B12,0.568
6,B13,1.93

# Target: T6, human SIRPγ extracellular domain + His-tag (NP_061026.2) (human, UniProt Q9P1W8 29-360)
# T6 construct: also called hSIRPγ; HuSIRPγ
# T6 sequence (Q9P1W8 29-360): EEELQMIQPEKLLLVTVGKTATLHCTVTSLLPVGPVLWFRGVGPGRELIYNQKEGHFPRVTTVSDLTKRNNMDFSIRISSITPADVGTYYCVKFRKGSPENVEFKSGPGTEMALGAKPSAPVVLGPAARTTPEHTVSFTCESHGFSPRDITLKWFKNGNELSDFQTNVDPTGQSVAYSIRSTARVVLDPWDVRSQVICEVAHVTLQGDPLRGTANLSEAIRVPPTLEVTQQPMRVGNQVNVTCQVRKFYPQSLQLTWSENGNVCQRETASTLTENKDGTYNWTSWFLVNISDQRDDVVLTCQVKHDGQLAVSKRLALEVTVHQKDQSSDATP
# Experiment: SPR, Ab captured, ECD-His analyte
# Description: as §1, §2
row,Binder,binding result
1,B8,no binding (tested: 1000 nM)
2,B9,no binding (tested: 1000 nM)
3,B10,no binding (tested: 1000 nM)
4,B11,no binding (tested: 1000 nM)
5,B12,no binding (tested: 1000 nM)
6,B13,no binding (tested: 1000 nM)

# Target: T7, cynomolgus SIRPβ1v3 (XP_005568593) extracellular domain + His-tag (cynomolgus monkey)
# T7 construct: SPR analyte; also called Cyno SIRPβ1v3 XP_005568593; cynoSIRPβ1v3; not shown: His-tag
# T7 chain: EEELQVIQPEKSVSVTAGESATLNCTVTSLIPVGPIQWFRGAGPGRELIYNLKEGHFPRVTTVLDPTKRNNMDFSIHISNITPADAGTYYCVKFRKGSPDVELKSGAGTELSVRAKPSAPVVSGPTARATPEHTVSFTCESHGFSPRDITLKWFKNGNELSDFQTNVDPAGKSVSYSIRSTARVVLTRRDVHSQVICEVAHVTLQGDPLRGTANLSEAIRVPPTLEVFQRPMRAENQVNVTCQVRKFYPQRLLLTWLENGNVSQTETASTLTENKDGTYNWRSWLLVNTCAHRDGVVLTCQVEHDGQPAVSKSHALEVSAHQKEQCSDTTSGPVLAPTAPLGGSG
# Experiment: SPR, antibody captured, ECD-His analyte
# Description: as §1, §2
row,Binder,Kd [nM]
1,B1,10.8
2,B2,23.9
3,B3,10.7
4,B4,22.6
5,B5,13.1
6,B6,12.4
7,B7,10.8

# Target: T8, Human SIRPαV1 (NP_542970.1), Extracellular Domain + His-Tag (human, UniProt P78324 31-373)
# T8 construct: also called huSIRPαV1; hSIRPαV1; not shown: His-Tag
# Experiment: SPR, antibody captured on Protein A/G, ECD-His analyte, 1:1 fit
# Description: (§3) The binding kinetics of anti-SIRPα antibodies to various SIRPα analytes are determined by surface plasmon resonance (SPR) using a Biacore 8K+(Cytiva). 1×HBS-EP+(Cytiva) is used as running buffer and for all the dilutions unless stated otherwise. The Series S CM5 sensorchip is activated with a 1:1 mixture of 0.1 M NHS (N-hydroxysuccinimide) and 0.4 M EDC (1-Ethyl-3-(3-dimethylaminopropyl) carbodiimide hydrochloride) for 420 seconds at a flow rate of 10 μl/min and immobilized with Protein A/G (Thermo Scientific, 10 μg/ml in 10 mM acetate pH 4.5) for 420 seconds at a flowrate of 10 μl/min resulting in approximately 3000 RU of Protein A/G on the surface. The sensorchip is then deactivated with 1 M ethanolamine HCl pH 8.5 for 420 seconds at a flowrate of 10 μl/min.
# (§4) Antibodies (approximately 1 ug/ml) are captured on the Protein A/G surface for 60 seconds at a flowrate of 10 μl/min resulting in capture levels of approximately 240 RU. Dilutions of each SIRP protein (Extracellular Domain+His-Tag, with the concentrations as indicated) are injected as analytes over the captured antibody for 300 seconds of association at a flowrate of 30 μl/min, followed by a dissociation for 600 seconds.
# (§5) The above procedures are used to measure binding properties of antibodies of the present disclosure. For each analyte used, the highest concentration was as indicated in Example 3 (see Table 36).
row,Binder,Kd [nM]
1,B14,0.43

# Target: T9, Human SIRPαV2 (CAA71403.1), Extracellular Domain + His-Tag (human, UniProt P78324 31-373)
# T9 construct: also called huSIRPαV2; hSIRPαV2; not shown: His-Tag
# Experiment: as above
# Description: as §3, §4, §5
row,Binder,Kd [nM]
1,B14,0.33
